Tested on: human colon cancer cell line LS174T
Details: mouse, in vivo

Rtx-TCO: TCO-modified rituximab for control in vivo experiments; lacks specificity for TAG72
tumor-to-blood ratio (T/B): 0.6±0.0
tumor-to-muscle ratio (T/M): 4.9±0.8

— US20120039803A1, “PRETARGETING KIT, METHOD AND AGENTS USED THEREIN” (KONINKLIJKE PHILIPS ELECTRONICS N.V., priority 2009, published 2012)
